US20080286275A1 (ISTITUTO DI RICERCHE DI BIOLOGIA MOLECOLARE P ANGELETTI S P …, published 2008)

B1: single-chain antibody of SEQ ID NO: 2 (scFv)
scFv: QVQLQESGPGLVKPSETLSLNCTVSGGSISSSSYYWGWIRQPPGKGLEWIGSVYYTGNTYYNPSLKSRVTMSVDTSKNQFSLKLNSVTAADTAVYYCARHVLGGGWEVSQRFDYWGRGTLVTVSSGGGGSGGGGSGGGGSAQSVLTQPPSASGTPGQRVTISCSGSSSNIGSNPVNWYQQLPGTAPKLLIHTNNQRPSGVPDRFSGSKSGTSASLAISGLLSEDEADYYCAAWDDSLNAYVFGTGTKVTVL
notes: VH-linker(Ser/Gly)-VL from the CAT phage library CS, produced outside the phage context; also called scFVC11
B2: single-chain antibody of SEQ ID NO: 1 (scFv)
scFv: EVQLVQSGAEVRKPGATVKISCKLTGDTFTDYFIFWLQLAPGKGLQWMGLIDPKDAQTIYAEKFQGRVAITADTSTDTAYMEVSSLRSEDTAVYYCATDSVGAAGFDVWGRGTMVTVSSGGGGSGGGGSGGGGSALPVLTQPPSASGAPGQRVTFSCSGSGSNIGSYTVNWYQQLPGAAPRLLMHTTDQRASGAPDRFSGSKSGTSASLAITGLQSEDEADYFCAAWDDSLDGPVFGGGTKLTVL
notes: VH-linker(Ser/Gly)-VL from the CAT phage library CS, produced outside the phage context
B3: single-chain antibody of SEQ ID NO: 3 (scFv)
scFv: EVQLVETGAEVKKPGSSVKVSCKASGDTLSSHAIIWVRQAPGQGLEWMGGIIPIFRTVNYAQKFQGRVTITADDSTSTAYMELNDLRSEDTAVYYCAKTLNEGLPWDYWGQGTLVTVSSGGGGSGGGGSGGGGSAQSVLTQPPGASGAPGQRVTISCSGDSSNIESYAVNWYQQVPGMAPKLLIYRDNQRPSGVPDRFSGSRSGTSASLAISGLQSEDEADYYCGSWDDNLNGPTFGGGTKVTVL
notes: as for B2
B4: single-chain antibody of SEQ ID NO: 4 (scFv)
scFv: EVQLVQSGAEVRKPGTAVKISCKVAGDTFTDYFIYWLQQAPGKGPEWMGLIDPKDAQTIYAEKFQGRVAITADTSTDTAYMELSSLKSEDTAVYYCATDSVGSAGFDVWGQGTLVTVSSGGGGSGGGGSGGGGSALPVLTQPPSASGAPGQRVTFSCSGSGSNIGSYTVNWYQQLPGAAPRLLMHTTDQRASGVPDRFSGSKSGTSASLAITGLQSEDEADYFCAAWDDSLDGPVFGGGTKLTVL
notes: as for B2
B5: IgG4 molecule containing SEQ ID NO: 2 variable regions (antibody, V domains shown)
VH: QVQLQESGPGLVKPSETLSLNCTVSGGSISSSSYYWGWIRQPPGKGLEWIGSVYYTGNTYYNPSLKSRVTMSVDTSKNQFSLKLNSVTAADTAVYYCARHVLGGGWEVSQRFDYWGRGTLVTVSS
VL: not shown
notes: The primers may have added amino acids
B6: IgG4 molecule containing SEQ ID NO: 4 variable regions (antibody, V domains shown)
VH: EVQLVQSGAEVRKPGTAVKISCKVAGDTFTDYFIYWLQQAPGKGPEWMGLIDPKDAQTIYAEKFQGRVAITADTSTDTAYMELSSLKSEDTAVYYCATDSVGSAGFDVWGQGTLVTVSS
VL: LPVLTQPPSASGAPGQRVTFSCSGSGSNIGSYTVNWYQQLPGAAPRLLMHTTDQRASGVPDRFSGSKSGTSASLAITGLQSEDEADYFCAAWDDSLDGPVFGGGTKLTVL
notes: as for B5

The binders below were run against T1, human scavenger receptor class B type I (SR-B1) (human, UniProt Q8WTV0 1-467) (assay: FACS competition on HepG2 cells, scFv concentration varied, competitor soluble E2).
T1 construct: The same entry is used for all three; also called SR-BI; SR-B1 receptor
T1 sequence: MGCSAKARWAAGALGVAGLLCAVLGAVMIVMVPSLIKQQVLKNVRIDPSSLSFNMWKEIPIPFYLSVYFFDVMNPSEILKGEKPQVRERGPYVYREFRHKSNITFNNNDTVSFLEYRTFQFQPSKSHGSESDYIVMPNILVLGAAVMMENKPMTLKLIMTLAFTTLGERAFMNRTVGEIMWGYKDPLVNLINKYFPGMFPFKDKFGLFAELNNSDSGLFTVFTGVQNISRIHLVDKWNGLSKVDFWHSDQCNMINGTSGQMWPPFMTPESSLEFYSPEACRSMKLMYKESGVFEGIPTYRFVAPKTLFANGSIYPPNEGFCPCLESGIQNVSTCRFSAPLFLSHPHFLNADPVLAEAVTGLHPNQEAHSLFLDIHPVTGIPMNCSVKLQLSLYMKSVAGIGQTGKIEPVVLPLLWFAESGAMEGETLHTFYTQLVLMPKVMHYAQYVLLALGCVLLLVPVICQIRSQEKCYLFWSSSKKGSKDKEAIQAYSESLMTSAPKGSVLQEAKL
B1: binds. B2: binds. B3: binds. B4: binds.

The binders below were run against T1, human scavenger receptor class B type I … (assay: FACS competition on Cho7s cells expressing human SR-B1, IgG concentration varied (60-12-2.4 µg/ml), competitor His-tagged soluble E2).
B5: binds. B6: binds.
